{
  "source": "patent US20180230231A1",
  "about": "(Memorial Sloan Kettering, published 2018)",
  "molecules": {"B1": {"name": "4H11.2.5 (antibody, V domains shown)", "VH": "VKLQESGGGFVKPGGSLKVSCAASGFTFSSYAMSWVRLSPEMRLEWVATISSAGGYIFYSDSVQGRFTISRDNAKNTLHLQMGSLRSGDTAMYYCARQGFGNYGDYYAMDYWGQGTTVTVSS", "VL": "DIELTQSPSSLAVSAGEKVTMSCKSSQSLLNSRTRKNQLAWYQQKPGQSPELLIYWASTRQSGVPDRFTGSGSGTDFTLTISSVQAEDLAVYYCQQSYNLLTFGPGTKLEVKR", "notes": "Mouse monoclonal, IgG2b (parent supernatant IgG2b, IgM); also called 4H11 MAb"}, "B2": {"name": "4A5.37 (antibody, IgG1, V domains shown)", "VH": "B1 VH with Q4E, V19I, S29R, S30N", "VL": "B1 VL with P46T, V111I", "notes": "Mouse monoclonal, IgG1"}, "B3": {"name": "12B10-3G10 (antibody, V domains shown)", "VH": "EVKLEESGGGLVQPKGSLKLSCAASGFTFNTYAVHWVRQAPGKGMEWVARIRSKSGNYATYYADSVKDRFTISRNDSQSMLYLQMNNLKTEDTAIYYCVRAGNNGAFPYWGQGTTVTVSS", "VL": "DIELTQSPSSLSASLGGRVTITCKASQDIKKYIAWYQHKPGKTPRLLIHFTSTLQTGIPSRFSGRGSGRDYSFSISNLESEDIATYYCLQYDSLYTFGGGTKLEIKR", "notes": "Mouse mAb against mouse MUC16, IgG 2b; also called mouse 12B10 mAb; 12B10-3F7"}},
  "key": {"[1]": {"target": "phrGFP-ΔMUC16^c114 on SKOV3 cells (human)", "sequence (chain, as listed by the source mutant limits assumed)": "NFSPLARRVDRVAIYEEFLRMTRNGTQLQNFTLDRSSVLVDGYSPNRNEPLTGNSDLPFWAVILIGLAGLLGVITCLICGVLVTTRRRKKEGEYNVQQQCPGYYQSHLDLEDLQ", "test": "FACS dot plot, surface staining, goat anti-mouse IgG PE (FL2) against GFP (FL1); secondary antibody alone gives 0.55 in this quadrant (FIG. 7A)"}, "[2]": {"target": "phrGFP-ΔMUC16^c334 on SKOV3 cells (human)", "test": "FACS dot plot, surface staining, goat anti-mouse IgG PE (FL2) against GFP (FL1); secondary antibody alone gives 4.11 in this quadrant (FIG. 7A)"}, "[3]": {"target": "phrGFP-ΔMUC16^c114 on SKOV3 cells (human)", "test": "FACS dot plot, surface staining, goat anti-mouse IgG PE (FL2) against GFP (FL1); secondary antibody alone gives about 0.9 in this quadrant (FIG. 7A)"}, "[4]": {"target": "human MUC16 on OVCAR3 cells (human)", "test": "FACS dot plot, surface staining, goat anti-mouse IgG PE (FL2) against GFP (FL1); secondary antibody alone gives 8.06 in this quadrant (FIG. 7A)"}, "[5]": {"target": "phrGFP-ΔMUC16^c334 on SKOV3 cells (human)", "test": "FACS dot plot, surface staining, goat anti-mouse IgG PE (FL2) against GFP (FL1); secondary antibody alone gives 0.69 in this quadrant (FIG. 7A)"}, "[6]": {"target": "phrGFP-ΔMUC16^c114 on SKOV3 cells (human)", "test": "FACS dot plot, surface staining, goat anti-mouse PE (FL2) against GFP (FL1); secondary antibody alone gives about 0.9 in this quadrant (FIG. 7A)"}, "[7]": {"target": "phrGFP-ΔMUC16^c334 on SKOV3 cells (human)", "test": "FACS dot plot, surface staining, goat anti-mouse PE (FL2) against GFP (FL1); secondary antibody alone gives 0.69 in this quadrant (FIG. 7A)"}, "[8]": {"target": "phrGFP-ΔMUC16^c114 on SKOV3 cells (human)", "test": "FACS dot plot, surface staining, goat anti-mouse PE (FL2) against GFP (FL1); secondary antibody alone gives 0.55 in this quadrant (FIG. 7A)"}, "[9]": {"target": "human MUC16 on OVCAR3 cells (human)", "test": "FACS dot plot, surface staining, goat anti-mouse PE (FL2) against GFP (FL1); secondary antibody alone gives 8.06 in this quadrant (FIG. 7A)"}, "[10]": {"target": "phrGFP-ΔMUC16^c334 on SKOV3 cells (human)", "test": "FACS dot plot, surface staining, goat anti-mouse PE (FL2) against GFP (FL1); secondary antibody alone gives 4.11 in this quadrant (FIG. 7A)"}, "[11]": {"target": "mouse MUC16 on ID8 and BR5-FVB1 cells (mouse)", "sequence (chain, as listed by the source limits assumed)": "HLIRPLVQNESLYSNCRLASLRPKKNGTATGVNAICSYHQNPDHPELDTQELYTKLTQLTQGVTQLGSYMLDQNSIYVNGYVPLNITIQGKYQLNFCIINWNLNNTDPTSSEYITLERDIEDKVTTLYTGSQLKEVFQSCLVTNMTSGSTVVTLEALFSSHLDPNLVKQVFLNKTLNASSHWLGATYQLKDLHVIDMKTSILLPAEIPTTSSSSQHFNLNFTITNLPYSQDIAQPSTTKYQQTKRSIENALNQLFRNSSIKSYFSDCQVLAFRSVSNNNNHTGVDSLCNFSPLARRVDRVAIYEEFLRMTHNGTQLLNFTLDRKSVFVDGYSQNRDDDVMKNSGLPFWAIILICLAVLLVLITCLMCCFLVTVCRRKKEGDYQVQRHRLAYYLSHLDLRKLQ", "test": "FACS on BR5-FVB1 (mouse) cells, second antibody alone"}, "[12]": {"target": "mouse MUC16 on ID8 and BR5-FVB1 cells (mouse)", "test": "FACS on ID8 (mouse) cells, second antibody alone"}, "[13]": {"target": "phrGFP-ΔMUC16^c334 on SKOV3 cells (human)", "test": "FACS dot plot, surface staining, goat anti-mouse PE (FL2) against GFP (FL1); secondary antibody alone gives 0.69 in this quadrant"}, "[14]": {"target": "human MUC16 on OVCAR3 cells (human)", "test": "FACS dot plot, surface staining, goat anti-mouse PE (FL2) against GFP (FL1); secondary antibody alone gives 8.06 in this quadrant"}, "[15]": {"target": "phrGFP-ΔMUC16^c114 on SKOV3 cells (human)", "test": "FACS dot plot, surface staining, goat anti-mouse PE (FL2) against GFP (FL1); secondary antibody alone gives about 0.9 in this quadrant"}, "[16]": {"target": "phrGFP-ΔMUC16^c114 on SKOV3 cells (human)", "test": "FACS dot plot, surface staining, goat anti-mouse PE (FL2) against GFP (FL1); secondary antibody alone gives 0.55 in this quadrant"}, "[17]": {"target": "phrGFP-ΔMUC16^c334 on SKOV3 cells (human)", "test": "FACS dot plot, surface staining, goat anti-mouse PE (FL2) against GFP (FL1); secondary antibody alone gives 4.11 in this quadrant"}, "MUC16 Polypeptide 2": {"target": "T1, MUC16 Polypeptide 2 (human, not fully specified)", "T1 construct": "Synthetic peptide", "T1 peptide": "CTLDRSSVLVDGYSPNRNE", "test": "ELISA on synthetic peptide, hybridoma sup 1:1"}, "Mouse MUC16-CD Peptide 1": {"target": "T2, Mouse MUC16-CD Peptide 1 (mouse, also: N-terminal Cys added for KLH conjugation of immunogen)", "T2 construct": "A cysteine was added at the N terminus for KLH conjugation of the immunogen", "T2 peptide": "TLDRKSVFVDGYSQNRDD", "test": "ELISA of clone supernatant on individual mouse MUC16 peptides"}},
  "note": "Residue numbers refer to the chain shown, from its start. Ends that are not written are not given here.",
  "data": [
    {"molecule": "VK8 (antibody)", "values": [
      {"measurement": "% of events in the upper left quadrant (PE-positive, GFP-negative)", "setting": "[1]", "result": 0.69, "unit": "%"},
      {"measurement": "% of events in the upper right quadrant (PE-positive, GFP-positive)", "setting": "[2]", "result": 6.59, "unit": "%"},
      {"measurement": "% of events in the upper right quadrant (PE-positive, GFP-positive)", "setting": "[3]", "result": 1.02, "unit": "%"},
      {"measurement": "% of events in the upper left quadrant (PE-positive, GFP-negative)", "setting": "[4]", "result": 94.9, "unit": "%"},
      {"measurement": "% of events in the upper left quadrant (PE-positive, GFP-negative)", "setting": "[5]", "result": 0.91, "unit": "%"}
    ]},
    {"molecule": "M11 (antibody)", "values": [
      {"measurement": "% of events in the upper right quadrant (PE-positive, GFP-positive)", "setting": "[6]", "result": 1.24, "unit": "%"},
      {"measurement": "% of events in the upper left quadrant (PE-positive, GFP-negative)", "setting": "[7]", "result": 1.35, "unit": "%"},
      {"measurement": "% of events in the upper left quadrant (PE-positive, GFP-negative)", "setting": "[8]", "result": 2.55, "unit": "%"},
      {"measurement": "% of events in the upper left quadrant (PE-positive, GFP-negative)", "setting": "[9]", "result": 95.3, "unit": "%"},
      {"measurement": "% of events in the upper right quadrant (PE-positive, GFP-positive)", "setting": "[10]", "result": 33.5, "unit": "%"}
    ]},
    {"molecule": "G anti Mouse IgG2b-PE (antibody)", "values": [
      {"measurement": "% of cells in the PE-positive gate", "setting": "[11]", "result": 0.99, "unit": "%"},
      {"measurement": "% of cells in the PE-positive gate", "setting": "[12]", "result": 4.53, "unit": "%"}
    ]},
    {"molecule": "OC125 (antibody)", "values": [
      {"measurement": "% of events in the upper left quadrant (PE-positive, GFP-negative)", "setting": "[13]", "result": 1.1, "unit": "%"},
      {"measurement": "% of events in the upper left quadrant (PE-positive, GFP-negative)", "setting": "[14]", "result": 97, "unit": "%"},
      {"measurement": "% of events in the upper right quadrant (PE-positive, GFP-positive)", "setting": "[15]", "result": 1.09, "unit": "%"},
      {"measurement": "% of events in the upper left quadrant (PE-positive, GFP-negative)", "setting": "[16]", "result": 2.39, "unit": "%"},
      {"measurement": "% of events in the upper right quadrant (PE-positive, GFP-positive)", "setting": "[17]", "result": 25.4, "unit": "%"}
    ]},
    {"molecule": "B1", "values": [
      {"measurement": "binding result", "setting": "MUC16 Polypeptide 2", "result": "binds"}
    ]},
    {"molecule": "B2", "values": [
      {"measurement": "binding result", "setting": "MUC16 Polypeptide 2", "result": "binds"}
    ]},
    {"molecule": "B3", "values": [
      {"measurement": "binding result", "setting": "Mouse MUC16-CD Peptide 1", "result": "binds"}
    ]}
  ]
}
